Source: US20240018252A1

Target: human BCMA (B-Cell Maturation Antigen) on myeloma cells (human) (UniProt Q02223)
Experiment: cell-based or functional assay

Chain of human BCMA (B-Cell Maturation Antigen) on myeloma cells (human) (Q02223 whole entry): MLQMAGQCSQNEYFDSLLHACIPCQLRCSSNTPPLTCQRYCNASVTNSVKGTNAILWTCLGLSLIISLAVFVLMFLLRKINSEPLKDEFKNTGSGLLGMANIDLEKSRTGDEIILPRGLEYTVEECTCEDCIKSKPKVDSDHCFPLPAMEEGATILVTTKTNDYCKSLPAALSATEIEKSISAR

| Binder | EC50 (nM), killing of primary myeloma cells in bone marrow mononuclear cells of patient MM00146 (flow cytometry, day 5) | EC50, T-cell mediated cytotoxicity (LDH release, 20 h) on KMS12BM (BCMA+) cells | EC50, T-cell mediated cytotoxicity (LDH release, 20 h) on KMS12PE (BCMA+++) cells | EC50, T-cell mediated cytotoxicity (LDH release, 20 h) on MOLP8 (MOLP8+) cells |
| --- | --- | --- | --- | --- |
| P5A2/h2B4 anti-BCMA/CD3 bispecific (bispecific antibody, V domains shown) VH 1: EVQLLESGGGLVQPGGSLRLSCAASGFTFSSYAMNWVRQAPGKGLEWVSAISDSGGSTYYADSVKGRFTISRDNSKNTLYLQMNSLRAEDTAVYYCARYWPMDIWGQGTLVTVSS VL 1: EIVLTQSPGTLSLSPGERATLSCRASQSVSSSYLAWYQQKPGQAPRLLMYDASIRATGIPDRFSGSGSGTDFTLTISRLEPEDFAVYYCQQYGSWPLTFGQGTKVEIK VH 2: EVQLVESGGGLVQPGGSLRLSCAASGFTFSDYYMTWVRQAPGKGLEWVAFIRNRARGYTSDHNASVKGRFTISRDNAKNSLYLQMNSLRAEDTAVYYCARDRPSYYVLDYWGQGTTVTVSS VL 2: DIVMTQSPDSLAVSLGERATINCTSSQSLFNVRSRKNYLAWYQQKPGQPPKLLISWASTRESGVPDRFSGSGSGTDFTLTISSLQAEDVAVYYCKQSYDLFTFGSGTKLEIK | 0.946 nM | 1.51 nM | 0.371 nM | 5.23 nM |
| A02_Rd4_0.6nM_C01/h2B4 anti-BCMA/CD3 bispecific (bispecific antibody, V domains shown) VH 1: EVQLLESGGGLVQPGGSLRLSCAASGFTFSSYAMNWVRQAPGKGLEWVSAILSSGGSTYYADSVKGRFTISRDNSKNTLYLQMNSLRAEDTAVYYCARYWPMDIWGQGTLVTVSS VL 1: EIVLTQSPGTLSLSPGERATLSCRGGQSVSSSYLAWYQQKPGQAPRLLMYDASIRATGIPDRFSGSGSGTDFTLTISRLEPEDFAVYYCQQYQSWPLTFGQGTKVEIK VH 2: EVQLVESGGGLVQPGGSLRLSCAASGFTFSDYYMTWVRQAPGKGLEWVAFIRNRARGYTSDHNASVKGRFTISRDNAKNSLYLQMNSLRAEDTAVYYCARDRPSYYVLDYWGQGTTVTVSS VL 2: DIVMTQSPDSLAVSLGERATINCTSSQSLFNVRSRKNYLAWYQQKPGQPPKLLISWASTRESGVPDRFSGSGSGTDFTLTISSLQAEDVAVYYCKQSYDLFTFGSGTKLEIK | 0.064 nM | 0.078 nM | 0.073 nM | 0.55 nM |

Target: human CD3 (huCD3ed) (human) (UniProt P07766)
Sequence (P07766 23-126, chain 1 of 2): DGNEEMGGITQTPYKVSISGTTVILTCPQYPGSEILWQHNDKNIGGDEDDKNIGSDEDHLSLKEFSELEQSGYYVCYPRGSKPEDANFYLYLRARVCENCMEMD
Sequence (P04234 22-105, chain 2 of 2, further chain): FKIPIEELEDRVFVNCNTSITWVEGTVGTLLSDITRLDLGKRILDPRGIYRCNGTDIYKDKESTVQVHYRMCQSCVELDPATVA
Experiment: Biacore SPR, bispecific hIgG2dA format, 37 C; CD3 antigen not given

| Binder | Kd | koff | kon | t½ |
| --- | --- | --- | --- | --- |
| h2B4-1d_Ep (bispecific antibody, part only; not given: anti-EpCam arm, constant regions, V domains shown, not shown: another chain or arm of the molecule; a dimerising Fc or GST; small tags and cut ends) VH: EVQLVESGGGLVQPGGSLRLSCAASGFTFSDYYMTWVRQAPGKGLEWVAFIRNRARGYTSDHNASVKGRFTISRDNAKNSLYLQMNSLRAEDTAVYYCARDRPSYYVLDYWGQGTTVTVSS VL: DIVMTQSPDSLAVSLGERATINCTSSQSLFNVRSRKNYLAWYQQKPGQPPKLLISWASTRESGVPDRFSGSGSGTDFTLTISSLQAEDVAVYYCKQSYDLFTFGSGTKLEIK | 40.4 nM | 0.0237 s⁻¹ | 586000 M⁻¹ s⁻¹ | 29.4 s |
| h2B4-TK_Ep (bispecific antibody, part only; not given: anti-EpCam arm, constant regions, V domains shown, not shown: another chain or arm of the molecule; a dimerising Fc or GST; small tags and cut ends) VH: EVQLVESGGGLVQPGGSLRLSCAASGFTFSDYYMTWVRQAPGKGLEWVAFIRNRARGYTSDHNASVKGRFTISRDNAKNSLYLQMNSLRAEDTAVYYCARDRPSYYVLDYWGQGTTVTVSS VL: DIVMTQSPDSLAVSLGERATINCKSSQSLFNVRSRKNYLAWYQQKPGQPPKLLISWASTRESGVPDRFSGSGSGTDFTLTISSLQAEDVAVYYCKQSYDLFTFGSGTKLEIK | 31 nM | 0.0213 s⁻¹ | 687000 M⁻¹ s⁻¹ | 32.4 s |
| h2B4-hnpsTK_Ep (bispecific antibody, part only; not given: anti-EpCam arm, constant regions, V domains shown, not shown: another chain or arm of the molecule; a dimerising Fc or GST; small tags and cut ends) VH: EVQLVESGGGLVQPGGSLRLSCAASGFTFSDYYMTWVRQAPGKGLEWVAFIRNRARGYTSDHNPSVKGRFTISRDNAKNSLYLQMNSLRAEDTAVYYCARDRPSYYVLDYWGQGTTVTVSS VL: DIVMTQSPDSLAVSLGERATINCKSSQSLFNVRSRKNYLAWYQQKPGQPPKLLISWASTRESGVPDRFSGSGSGTDFTLTISSLQAEDVAVYYCKQSYDLFTFGSGTKLEIK | 31.2 nM | 0.0235 s⁻¹ | 754000 M⁻¹ s⁻¹ | 29.4 s |
| h2B4-yaesTK_Ep (bispecific antibody, part only; not given: anti-EpCam arm, constant regions, V domains shown, not shown: another chain or arm of the molecule; a dimerising Fc or GST; small tags and cut ends) VH: EVQLVESGGGLVQPGGSLRLSCAASGFTFSDYYMTWVRQAPGKGLEWVAFIRNRARGYTSDYAESVKGRFTISRDNAKNSLYLQMNSLRAEDTAVYYCARDRPSYYVLDYWGQGTTVTVSS VL: DIVMTQSPDSLAVSLGERATINCKSSQSLFNVRSRKNYLAWYQQKPGQPPKLLISWASTRESGVPDRFSGSGSGTDFTLTISSLQAEDVAVYYCKQSYDLFTFGSGTKLEIK | 54.4 nM | 0.0258 s⁻¹ | 474000 M⁻¹ s⁻¹ | 27 s |
| h25A8-B5_Ep (bispecific antibody, part only; not given: anti-EpCam arm, constant regions, V domains shown, not shown: another chain or arm of the molecule; a dimerising Fc or GST; small tags and cut ends) VH: EVQLVESGGGLVKPGGSLRLSCAASGFTFSTYAMNWVRQAPGKGLEWVGRIRSKINNYATYYAESVKGRFTISRDDSKNTLYLQMNSLKTEDTAVYYCVRHETLRSGISWFASWGQGTLVTVSS VL: QAVVTQEPSLTVSPGGTVTLTCRSSTGAVTTSNYANWVQQKPGQAPRGLIGGTNTRAPGTPARFSGSLLGGKAALTLSGAQPEDEAEYYCVLWYNNYWVFGGGTKLTVL | 45 nM | 0.0581 s⁻¹ | 1.29e+06 M⁻¹ s⁻¹ | 12 s |
| h25A8-B8_Ep (bispecific antibody, part only; not given: anti-EpCam arm, constant regions, V domains shown, not shown: another chain or arm of the molecule; a dimerising Fc or GST; small tags and cut ends) VH: EVQLVESGGGLVKPGGSLRLSCAASGFTFSTYAMNWVRQAPGKGLEWVGRIRSKINNYATYYAESVKGRFTISRDDSKNTLYLQMNSLKTEDTAVYYCVRHETLRSGISWFASWGQGTLVTVSS VL: QAVVTQEPSLTVSPGGTVTLTCRSSTGAVTTSNYANWVQQKPGQAPRGLIGGTNTRAPGTPARFSGSLLGGKAALTLSGAQPEDEAEYYCVLWYNNHWVFGGGTKLTVL | 18.7 nM | 0.0222 s⁻¹ | 1.19e+06 M⁻¹ s⁻¹ | 31.2 s |
| h25A8-B12_Ep (bispecific antibody, part only; not given: anti-EpCam arm, constant regions, V domains shown, not shown: another chain or arm of the molecule; a dimerising Fc or GST; small tags and cut ends) VH: EVQLVESGGGLVKPGGSLRLSCAASGFTFSTYAMNWVRQAPGKGLEWVGRIRSKINNYATYYAESVKGRFTISRDDSKNTLYLQMNSLKTEDTAVYYCVRHETLRSGISWFASWGQGTLVTVSS VL: QAVVTQEPSLTVSPGGTVTLTCRASTGAVTTSNYANWVQQKPGQAPRGLIGGTNTRAPGTPARFSGSLLGGKAALTLSGAQPEDEAEYYCVLWYNNHWVFGGGTKLTVL | 21 nM | 0.0241 s⁻¹ | 1.15e+06 M⁻¹ s⁻¹ | 28.8 s |
| h25A8-B13_Ep (bispecific antibody, part only; not given: anti-EpCam arm, constant regions, V domains shown, not shown: another chain or arm of the molecule; a dimerising Fc or GST; small tags and cut ends) VH: EVQLVESGGGLVKPGGSLRLSCAASGFTFSTYAMNWVRQAPGKGLEWVGRIRSKINNYATYYAESVKGRFTISRDDSKNTLYLQMNSLKTEDTAVYYCVRHETLRSGISWFASWGQGTLVTVSS VL: QAVVTQEPSLTVSPGGTVTLTCRTSTGAVTTSNYANWVQQKPGQAPRGLIGGTNTRAPGTPARFSGSLLGGKAALTLSGAQPEDEAEYYCVLWYNNHWVFGGGTKLTVL | 18.3 nM | 0.0219 s⁻¹ | 1.2e+06 M⁻¹ s⁻¹ | 31.8 s |
| h25A8-C8_Ep (bispecific antibody, part only; not given: anti-EpCam arm, constant regions, V domains shown, not shown: another chain or arm of the molecule; a dimerising Fc or GST; small tags and cut ends) VH: EVQLVESGGGLVKPGGSLRLSCAASGFTFNTYAMNWVRQAPGKGLEWVGRIRSKINNYATYYAESVKGRFTISRDDSKNTLYLQMNSLKTEDTAVYYCVRHETLRSGISWFASWGQGTLVTVSS VL: QAVVTQEPSLTVSPGGTVTLTCRSSTGAVTTSNYANWVQQKPGQAPRGLIGGTNTRAPGTPARFSGSLLGGKAALTLSGAQPEDEAEYYCVLWYNNHWVFGGGTKLTVL | 25.1 nM | 0.0301 s⁻¹ | 1.2e+06 M⁻¹ s⁻¹ | 22.8 s |
